We go through 1 substance from PMC4128009.

What all share (assay): pull-down
The target in assay [1] is His6-Spx R112A (Bacillus subtilis) (UniProt O31602).
Assay [2] addresses His6-Spx L114A (Bacillus subtilis) (UniProt O31602).
In assay [3] the target is His6-Spx F113A (Bacillus subtilis) (UniProt O31602).

Regarding “Geobacillus thermodenitrificans YjbH (GtYjbH), without tag (natural protein)”, the values for the decrease of YjbH binding compared to the WT in assay [1], in assay [2] and in assay [3] were 80%, 50% and 80%, respectively.
